The record followed here is the Immune Epitope Database (IEDB).

As a reminder, the Kd is the equilibrium constant for the complex coming apart.

Test [1] deals with HLA-B*51:01. Nature of the test: IEDB peptide-MHC binding, purified MHC/competitive/radioactivity; filed as Kd, often an IC50 or EC50 that approximates it; ≥ and ≤ were set here for values at or beyond the usual limits of such assays.
The target of test [2] is HLA-B*53:01. The description is as above.
For test [3], the target named is HLA-A*24:02. Described as above.
The target of test [4] is HLA-A*23:01. Described as above.
The target of test [5] is HLA-A*26:01. The test is described as above.
The target of test [6] is HLA-A*30:02. Described as above.
Test [7] addresses HLA-A*01:01. The test is described as above.
Test [8] has as its target HLA-A*29:02. The description is as above.
Test [9] concerns the target HLA-B*15:01. Put plainly: IEDB peptide-MHC binding, purified MHC/direct/fluorescence; filed as Kd, often an IC50 or EC50 that approximates it; ≥ and ≤ were set here for values at or beyond the usual limits of such assays. The note with it: source organism: SARS-CoV1.
Test [10] has as its target HLA-B*58:01. The description is as above. To be noted: source organism: SARS-CoV1.
In test [11] the target is HLA-A*01:01. The description is as above. The note with it: source organism: SARS-CoV1.
In test [12] the target is HLA-A*11:01. Nature of the test: IEDB peptide-MHC binding, purified MHC/competitive/radioactivity; filed as Kd, often an IC50 or EC50 that approximates it; ≥ and ≤ were set here for values at or beyond the usual limits of such assays. To be noted: source organism: Triticum aestivum.
Test [13] concerns the target HLA-A*31:01. The test is described as above. The note with it: source organism: Triticum aestivum.
Test [14] has as its target HLA-A*68:01. The description is as above. To be noted: source organism: Triticum aestivum.
Test [15] deals with HLA-A*33:01. The description is as above. The note with it: source organism: Triticum aestivum.
Test [16] addresses HLA-A*03:01. The description is as above. The note with it: source organism: Triticum aestivum.
For test [17], the target named is HLA-B*35:01. The test is described as above.
The target in test [18] is HLA-B*15:01. Described as above.
In test [19] the target is HLA-B*44:02. Nature of the test: IEDB peptide-MHC binding, purified MHC/direct/fluorescence; filed as Kd, often an IC50 or EC50 that approximates it; ≥ and ≤ were set here for values at or beyond the usual limits of such assays.
The target of test [20] is HLA-B*18:01. Described as above.
The target of test [21] is HLA-B*40:01. The test is described as above.
Test [22] has as its target HLA-A*32:01. Nature of the test: IEDB peptide-MHC binding, purified MHC/competitive/radioactivity; filed as Kd, often an IC50 or EC50 that approximates it; ≥ and ≤ were set here for values at or beyond the usual limits of such assays.
Setting [23] is: source organism: Dengue virus 1 Brazil/97-11/1997.
Where [24] appears, read: source organism: SARS coronavirus Tor2.
Where [25] appears, read: source organism: Triticum aestivum.
[26] abbreviates: source organism: Dengue virus 2 Jamaica/1409/1983.
[27] abbreviates: source organism: Dengue virus 1 Nauru/West Pac/1974.
Where [28] appears, read: source organism: Mammarenavirus whitewaterense.
Setting [29] is: source organism: Dengue virus 3 Singapore/8120/1995.
The mark [30] stands for this setting: source organism: Mammarenavirus guanaritoense.
Setting [31] is: source organism: Dengue virus 4 Philippines/H241/1956.
Setting [32] is: source organism: Influenza A virus (A/Ann Arbor/6/1960(H2N2)).
[33] abbreviates: source organism: Dengue virus 3 Sri Lanka/1266/2000.
Setting [34] is: source organism: Dengue virus 3 Martinique/1243/1999.
[35] abbreviates: source organism: Influenza A virus (A/WSN/1933(H1N1)).
[36] abbreviates: source organism: Vaccinia virus WR.
Where [37] appears, read: source organism: Influenza A virus (A/tern/Australia/1/04(H2N5)).

Turning to LPTALAFHL, the Kd in [1] (setting [23]) is 1.41 µM; in test [2] (setting [23]), 0.00216 µM.
Consider LYIIKLVFL, for which the Kd was 0.000268 µM in test [3] (setting [24]); 0.000179 µM in test [4] (setting [24]); at least 21 µM in test [5] (setting [24]); 13.5 µM in test [6] (setting [24]); 2.15 µM in test [7] (setting [24]); 3.11 µM in [8] (setting [24]).
With FTERSDKSY, the Kd in [3] (setting [24]) is at least 77.6 µM; in test [4] (setting [24]) it was at least 77.8 µM; in test [5] (setting [24]), 6.23 µM; in test [6] (setting [24]) it was 0.0535 µM; in [8] (setting [24]), 0.0685 µM; in test [9], 0.497 µM. Moreover, the Kd was found to be 2.8 µM in test [10] and 0.065 µM in test [11].
Regarding PVSDLKYSW, the Kd in test [2] (source organism: Dengue virus 4 Dominica/814669/1981) was found to be 1.69 µM.
On to VSFQQPQQQY, for which the Kd is at least 70.3 µM in test [3] (setting [25]); 1.77 µM in test [12]; at least 38.8 µM in test [4] (setting [25]); at least 70 µM in test [13]; at least 26.1 µM in test [5] (setting [25]); at least 70.2 µM in [14]. Besides, the Kd in test [15] is at least 70 µM; in test [6] (setting [25]) it was 0.000209 µM; in test [8] (setting [25]) it was 0.0555 µM; in test [16] it was at least 70.1 µM.
Regarding TAVAPSMTM, the Kd in test [17] (setting [26]) came to 0.0157 µM.
As for LYAVATTII, the values for the Kd in test [3] (setting [27]), in test [4] (setting [27]) and in test [1] (setting [27]) were 0.0597 µM, 0.211 µM and 1.39 µM, respectively.
For the sequence KFWYVNHTGF, the results for the Kd in test [3] (setting [28]), in [4] (setting [28]) and in test [8] (setting [28]) were 0.604 µM, 0.0809 µM and 0.341 µM, respectively.
For NKDGFLYVY, the Kd in test [3] (setting [24]) is at least 77.6 µM; in [4] (setting [24]) it was at least 77.8 µM; in test [5] (setting [24]) it was 14.3 µM; in test [6] (setting [24]), 2.83 µM; in test [7] (setting [24]), 13.9 µM; in test [8] (setting [24]) it was 1.13 µM.
For HYVRITGLY, the Kd in test [3] (setting [24]) was at least 22.7 µM; in test [4] (setting [24]), 7.53 µM; in [5] (setting [24]) it was 0.149 µM; in [6] (setting [24]), at least 27.6 µM; in [7] (setting [24]), 18.2 µM; in test [8] (setting [24]), 0.111 µM.
On to YYFMKFRRVF, for which the Kd in test [3] (setting [24]) was 0.00392 µM; in [4] (setting [24]) it was 0.00151 µM; in test [5] (setting [24]) it was 1.75 µM; in test [6] (setting [24]) it was at least 22.2 µM; in test [7] (setting [24]), 3.18 µM; in test [8] (setting [24]) it was 0.0028 µM.
With HMIAGVLFTF, the Kd in [3] (setting [29]) turned out to be 0.431 µM; in test [18] (setting [29]), 0.00203 µM; in test [5] (setting [29]), 1.16 µM.
VFQPSTGNYV: the Kd in [3] (setting [30]) is 1.53 µM; in test [4] (setting [30]), 5.66 µM; in [5] (setting [30]) it was at least 69.7 µM; in test [6] (setting [30]), 1.01 µM; in test [7] (setting [30]), at least 70.4 µM; in test [8] (setting [30]), at least 31.6 µM.
On to LKEPCPSGTY, for which the Kd in test [3] (setting [24]) was at least 70.3 µM; in test [4] (setting [24]) it was at least 70 µM; in [5] (setting [24]) it was 5.44 µM; in test [6] (setting [24]) it was 0.0698 µM; in [7] (setting [24]) it was 14.1 µM; in test [8] (setting [24]) it was 1.56 µM.
Regarding ILGAQALPVY, the values for the Kd in test [18] (setting [31]), in [6] (setting [31]) and in test [7] (setting [31]) were 0.00487 µM, 0.0808 µM and at least 70.4 µM, respectively.
As for VYDPLQPEL, the Kd in test [3] (setting [24]) was at least 44.8 µM; in test [4] (setting [24]), 12.8 µM; in test [5] (setting [24]), at least 77.9 µM; in [6] (setting [24]), 0.302 µM; in test [7] (setting [24]) it was at least 78.1 µM; in test [8] (setting [24]), 0.00842 µM.
Regarding YSDPLALREF, the Kd in [17] (setting [23]) turned out to be 1.89 µM; in [7] (setting [23]), 0.0213 µM; in [2] (setting [23]), 0.899 µM.
With RQEMASRGLW, the Kd in [3] (setting [32]) is 9.01 µM; in [4] (setting [32]), 1.73 µM; in test [5] (setting [32]) it was at least 69.7 µM; in test [6] (setting [32]) it was 4.35 µM; in [7] (setting [32]), at least 70.4 µM; in test [8] (setting [32]) it was 1.88 µM.
Regarding LIVSGIFPY, the Kd in [18] (setting [33]) was 0.00291 µM; in [5] (setting [33]), 1.16 µM; in [17] (setting [33]) it was 0.0827 µM; in [6] (setting [33]), at least 76.9 µM.
As for PFVVSTGYHF, the Kd was found to be 0.0679 µM in [3] (setting [24]); 0.00303 µM in test [4] (setting [24]); 0.974 µM in [5] (setting [24]); 11.8 µM in [6] (setting [24]); 4.89 µM in test [7] (setting [24]); 0.257 µM in test [8] (setting [24]).
Take FFGALKFKI: the Kd in test [3] (setting [30]) came out at 2.15 µM; in test [4] (setting [30]) it was 0.207 µM; in test [8] (setting [30]) it was 0.0203 µM.
As for PFGDSYIVI, the dissociation constant Kd in test [4] (setting [31]) amounted to 0.723 µM.
As for AFLPFTLGI, the Kd in test [3] (setting [24]) was at least 81.8 µM; in test [4] (setting [24]), at least 45.8 µM; in test [5] (setting [24]), at least 77.9 µM; in test [6] (setting [24]), 8.04 µM; in test [7] (setting [24]) it was at least 78.1 µM; in [8] (setting [24]), 0.529 µM.
Turning to PYPDPSRIL, the Kd in test [3] (setting [24]) was at least 83.3 µM; in [4] (setting [24]), 19.8 µM; in test [5] (setting [24]), at least 77.9 µM; in [6] (setting [24]) it was at least 75 µM; in [7] (setting [24]), at least 78.1 µM; in test [8] (setting [24]), at least 35.9 µM.
For the sequence EPVPMSTYGW, the Kd in test [2] (setting [34]) was determined as 0.158 µM.
In the case of VTYLALLAAF, the values for the equilibrium dissociation constant (Kd) in [18] (setting [26]), in test [5] (setting [26]) and in test [7] (setting [26]) were 0.0407 µM, at least 69.7 µM and 14.8 µM, respectively.
Turning to MAMTCIAVG, the Kd in test [17] (setting [31]) was determined as 0.116 µM.
EMCEDTVTY: the Kd in [18] (setting [31]) was determined as 0.0283 µM; in [5] (setting [31]) it was 3.9 µM; in test [17] (setting [31]), 0.681 µM; in test [6] (setting [31]) it was 14.3 µM.
EPEVANLDII: in test [2] (setting [23]), the Kd is 8.45 µM.
With AESRKLLLI, the Kd in test [19] (setting [35]) is at least 53 µM; in test [20] (setting [35]), at least 20 µM; in test [21] (setting [35]), 0.158 µM.
IMMLKLLTEF: the Kd was determined as 0.309 µM in [3] (setting [23]) and 0.00624 µM in test [18] (setting [23]).
MLHNFLPHM: the Kd in test [18] (setting [36]) was found to be 0.041 µM.
On to LFFFVYENAF, for which the Kd in test [3] (setting [24]) was 0.185 µM; in [4] (setting [24]), 0.0588 µM; in test [5] (setting [24]), 14.5 µM; in test [6] (setting [24]) it was at least 51.1 µM; in test [7] (setting [24]), 9.72 µM; in [8] (setting [24]), 0.107 µM.
With MLFYLEEPI, the Kd stood at 0.0452 µM in test [18] (setting [36]) and 0.00251 µM in test [22] (setting [36]).
The matching figures for SIISLFYTF: 0.00137 µM and 0.00571 µM.
Turning to RQMEGEGIF, the values for the Kd in [18] (setting [26]) and in [22] (setting [26]) were 0.00585 µM and 0.14 µM, respectively.
In the case of MSPCRMFSF, the Kd in [18] (setting [36]) was 0.0173 µM.
For the sequence SETQGTEKL, the Kd in [19] (setting [37]) is at least 20 µM; in [20] (setting [37]) it was 2.04 µM; in [21] (setting [37]) it was 0.0105 µM.
For EPGVVSPTSY, the Kd was found to be 0.592 µM in test [17] (setting [34]) and 0.313 µM in test [2] (setting [34]).
